In this assay the test system is cell line E15 and the line W10. The experiment in a line: Cell lines E15 and W10 in micromass versus HyStem-C culture with BMP4, gene expression. The class given is cell-based, human. Particulars: micromass conditions supplemented with 10 ng/mL BMP4. As to the method:
In addition, the incubation of hEP cell lines in HyStem-C (BioTime, Inc. Alameda, Calif.) allowed the accumulation of a large amount of data on the biological influence of HyStem-C (BioTime, Inc. Alameda, Calif.) on diverse cell types. […] This physiological effect on myofibroblastic differentiation seen in many lines cultured in HyStem-C (BioTime, Inc. Alameda, Calif.) beads (i.e., the strong reduction in MYH11 expression) has therapeutic implications in vivo, such as in inhibiting fibrosis or adhesions. It also is of benefit in surgical settings where cells could be transplanted to regenerate tissue function while inhibiting adhesions and related fibrotic process at the surgical site.
The present invention utilizes micromass differentiations to generate high-density cultures, thereby predisposing hEP cells to differentiation in the presence of exogenous factors. Differentiation by micromass culture was performed according to the manufacturer's (BioTime) instructions (Chondrogenesis Differentiation Kit ES-K42). Briefly, cells were cultured in the undifferentiated state, trypsinized (0.25% w/v trypsin/EDTA (Invitrogen)), diluted 1:3 with PBS (Ca and Mg free), and resuspended at a cell density of 2.0×10^7 cells/ml in their respective growth media. […]

B1: BMP4: Bone Morphogenetic Protein 4, TGF-beta superfamily member (protein, UniProt P12644 293-408, looked up)
Bone morphogenetic protein 4: SPKHHSQRARKKNKNCRRHSLYVDFSDVGWNDWIVAPPGYQAFYCHGDCPFPLADHLNSTNHAIVQTLVNSVNSSIPKACCVPTELSAISMLYLDEYDKVVLKNYQEMVVEGCGCR
For B1, the MYH11 expression result was “strongly induced”.

Values taken from US20230093399A1, “METHODS FOR GENERATING PLURIPOTENT STEM CELL-DERIVED BROWN FAT CELLS” (AgeX Therapeutics, Inc., priority 2013, published 2023).
